This data set can be described thus: total protein half-life in vivo (active degradation + dilution); higher = more stable protein.
[1] abbreviates: E. coli NCM3722 delta-clpP delta-lon delta-hslV, growth: N-lim chemostat, doubling time 6 h.
[2] abbreviates: E. coli NCM3722 delta-clpP, growth: N-lim chemostat, doubling time 6 h.
Where [3] appears, read: E. coli NCM3722 delta-hslV, growth: N-lim chemostat, doubling time 6 h.
Where [4] appears, read: E. coli NCM3722 delta-lon, growth: N-lim chemostat, doubling time 6 h.
The mark [5] stands for this setting: E. coli NCM3722 delta-smpB, growth: N-lim chemostat, doubling time 6 h.
The mark [6] stands for this setting: wild type E. coli NCM3722, growth: C-lim chemostat, doubling time 3 h.
Setting [7] is: wild type E. coli NCM3722, growth: C-lim chemostat, doubling time 6 h.
Setting [8] is: wild type E. coli NCM3722, growth: C-lim chemostat, doubling time 12 h.
[9] abbreviates: wild type E. coli NCM3722, growth: N-lim chemostat, doubling time 6 h.
Where [10] appears, read: wild type E. coli NCM3722, growth: N-lim chemostat, doubling time 12 h.
Where [11] appears, read: wild type E. coli NCM3722, growth: P-lim chemostat, doubling time 6 h.
[12] abbreviates: wild type E. coli NCM3722, growth: P-lim chemostat, doubling time 12 h.

± gives the standard deviation of the averaged measurements.

Consider “MLYDKSLERDNCGFGLIAHIEGEPSHKVVRTAIHALARMQHRGAILADGKTGDGCGLLLQKPDRFFRIVAQERGWRLAKNYAVGMLFLNKDPELAAAARRIVEEELQRETLSIVGWRDVPTNEGVLGEIALSSLPRIEQIFVNAPAGWRPRDMERRLFIARRRIEKRLEADKDFYVCSLSNLVNIYKGLCMPTDLPRFYLDLADLRLESAICLFHQRFSTNTVPRWPLAQPFRYLAHNGEINTITGNRQWARARTYKFQTPLIPDLHDAAPFVNETGSDSSSMDNMLELLLAGGMDIIRAMRLLVPPAWQNNPDMDPELRAFFDFNSMHMEPWDGPAGIVMSDGRFAACNLDRNGLRPARYVITKDKLITCASEVGIWDYQPDEVVEKGRVGPGELMVIDTRSGRILHSAETDDDLKSRHPYKEWMEKNVRRLVPFEDLPDEEVGSRELDDDTLASYQKQFNYSAEELDSVIRVLGENGQEAVGSMGDDTPFAVLSSQPRIIYDYFRQQFAQVTNPPIDPLREAHVMSLATSIGREMNVFCEAEGQAHRLSFKSPILLYSDFKQLTTMKEEHYRADTLDITFDVTKTTLEATVKELCDKAEKMVRSGTVLLVLSDRNIAKDRLPVPAPMAVGAIQTRLVDQSLRCDANIIVETASARDPHHFAVLLGFGATAIYPYLAYETLGRLVDTHAIAKDYRTVMLNYRNGINKGLYKIMSKMGISTIASYRCSKLFEAVGLHDDVVGLCFQGAVSRIGGASFEDFQQDLLNLSKRAWLARKPISQGGLLKYVHGGEYHAYNPDVVRTLQQAVQSGEYSDYQEYAKLVNERPATTLRDLLAITPGENAVNIADVEPASELFKRFDTAAMSIGALSPEAHEALAEAMNSIGGNSNSGEGGEDPARYGTNKVSRIKQVASGRFGVTPAYLVNADVIQIKVAQGAKPGEGGQLPGDKVTPYIAKLRYSVPGVTLISPPPHHDIYSIEDLAQLIFDLKQVNPKAMISVKLVSEPGVGTIATGVAKAYADLITIAGYDGGTGASPLSSVKYAGCPWELGLVETQQALVANGLRHKIRLQVDGGLKTGVDIIKAAILGAESFGFGTGPMVALGCKYLRICHLNNCATGVATQDDKLRKNHYHGLPFKVTNYFEFIARETRELMAQLGVTRLVDLIGRTDLLKELDGFTAKQQKLALSKLLETAEPHPGKALYCTENNPPFDNGLLNAQLLQQAKPFVDERQSKTFWFDIRNTDRSVGASLSGYIAQTHGDQGLAADPIKAYFNGTAGQSFGVWNAGGVELYLTGDANDYVGKGMAGGLIAIRPPVGSAFRSHEASIIGNTCLYGATGGRLYAAGRAGERFGVRNSGAITVVEGIGDNGCEYMTGGIVCILGKTGVNFGAGMTGGFAYVLDESGDFRKRVNPELVEVLSVDALAIHEEHLRGLITEHVQHTGSQRGEEILANWSTFATKFALVKPKSSDVKALLGHRSRSAAELRVQAQ”, for which the “total protein half-life in vivo” value is, setting by setting: under setting [1], 6.38 ± 0.89 h; under setting [2], 6.254 ± 0.044 h; under setting [3], 4.18 ± 0.16 h; under setting [4], 4.437 ± 0.013 h; under setting [5], 4.06 ± 0.1 h; under setting [6], 2.72 ± 0.22 h. Further, the “total protein half-life in vivo” value amounted to 4.89 ± 0.053 h under setting [7]; 8.46 ± 0.56 h under setting [8]; 3.92 ± 0.12 h under setting [9]; 6.4 ± 0.52 h under setting [10]; 5.31 ± 0.17 h under setting [11]; 8.43 ± 0.51 h under setting [12].

Consider “MLRFSANLSMLFGEYDFLARFEKAAQCGFRGVEFMFPYDYDIEELKHVLASNKLEHTLHNLPAGDWAAGERGIACIPGREEEFRDGVAAAIRYARALGNKKINCLVGKTPAGFSSEQIHATLVENLRYAANMLMKEDILLLIEPINHFDIPGFHLTGTRQALKLIDDVGCCNLKIQYDIYHMQRMEGELTNTMTQWADKIGHLQIADNPHRGEPGTGEINYDYLFKVIENSDYNGWVGCEYKPQTTTEAGLRWMDPYR”, for which the “total protein half-life in vivo” value stood at 4.29 ± 0.63 h under setting [1]; 5.97 h under setting [2]; 4.98 h under setting [4]; 3.59 ± 0.17 h under setting [5]; 10.1 h under setting [8]; 3.73 h under setting [9]. Further, the “total protein half-life in vivo” value is, setting by setting: under setting [10], 6.46 h; under setting [11], 5.52 h; under setting [12], 7.81 h.

As for “MATAWYKQVNPPQRKALFSAWLGYVFDGFDFMMIFYILHIIKADLGITDIQATLIGTVAFIARPIGGGFFGAMADKYGRKPMMMWAIFIYSVGTGLSGIATNLYMLAVCRFIVGLGMSGEYACASTYAVESWPKNLQSKASAFLVSGFSVGNIIAAQIIPQFAEVYGWRNSFFIGLLPVLLVLWIRKSAPESQEWIEDKYKDKSTFLSVFRKPHLSISMIVFLVCFCLFGANWPINGLLPSYLADNGVNTVVISTLMTIAGLGTLTGTIFFGFVGDKIGVKKAFVVGLITSFIFLCPLFFISVKNSSLIGLCLFGLMFTNLGIAGLVPKFIYDYFPTKLRGLGTGLIYNLGATGGMAAPVLATYISGYYGLGVSLFIVTVAFSALLILLVGFDIPGKIYKLSVAK”, the “total protein half-life in vivo” value under setting [6] was 3.16 h; the “total protein half-life in vivo” value under setting [7] was over 8 h; the “total protein half-life in vivo” value under setting [8] amounted to 9.57 h; the “total protein half-life in vivo” value under setting [11] came to 5.55 h; the “total protein half-life in vivo” value under setting [12] was 9.48 ± 2.4 h.

For the substance “MLSAFQLENNRLTRLEVEESQPLVNAVWIDLVEPDDDERLRVQSELGQSLATRPELEDIEASARFFEDDDGLHIHSFFFFEDAEDHAGNSTVAFTIRDGRLFTLRERELPAFRLYRMRARSQSMVDGNAYELLLDLFETKIEQLADEIENIYSDLEQLSRVIMEGHQGDEYDEALSTLAELEDIGWKVRLCLMDTQRALNFLVRKARLPGGQLEQAREILRDIESLLPHNESLFQKVNFLMQAAMGFINIEQNRIIKIFSVVSVVFLPPTLVASSYGMNFEFMPELKWSFGYPGAIIFMILAGLAPYLYFKRKNWL [P0ABI4]”, the “total protein half-life in vivo” value under setting [1] came to 5.99 ± 0.074 h; the “total protein half-life in vivo” value under setting [2] is 6.305 ± 0.044 h; the “total protein half-life in vivo” value under setting [3] came to 5.99 ± 0.58 h; the “total protein half-life in vivo” value under setting [5] stood at 6.4 ± 0.16 h; the “total protein half-life in vivo” value under setting [6] amounted to 3 ± 0.35 h; the “total protein half-life in vivo” value under setting [7] is 6.15 ± 0.071 h. The “total protein half-life in vivo” value came out at 11.8 ± 0.14 h under setting [8]; 6.07 ± 0.69 h under setting [9]; 11.7 ± 2 h under setting [10]; 5.62 ± 0.18 h under setting [11]; 12.6 ± 0.23 h under setting [12].

For the substance “MKCKRLNEVIELLQPAWQKEPDLNLLQFLQKLAKESGFDGELADLTDDILIYHLKMRDSAKDAVIPGLQKDYEEDFKTALLRARGVIKE [P0ADP9]”, the “total protein half-life in vivo” value stood at 6.97 ± 1.2 h under setting [1]; 4.97 ± 0.93 h under setting [2]; 3.81 ± 0.33 h under setting [3]; 3.98 ± 0.12 h under setting [4]; 3.12 ± 0.3 h under setting [5]; 4.76 ± 0.47 h under setting [7]. In addition, the “total protein half-life in vivo” value by setting is: under setting [8], 7.3 ± 1.9 h; under setting [9], 2.74 ± 0.051 h; under setting [10], 8.19 ± 5.8 h; under setting [11], 5.01 ± 1.1 h; under setting [12], 11.2 ± 0.38 h.

On to “MATGKSCSRWFAPLAALLMVVSLSGCFDKEGDQRKAFIDFLQNTVMRSGERLPTLTADQKKQFGPFVSDYAILYGYSQQVNQAMDSGLRPVVDSVNAIRVPQDYVTQSGPLREMNGSLGVLAQQLQNAKLQADAAHSALKQSDDLKPVFDQAFTKVVTTPADALQPLIPAAQTFTQQLVMVGDYIAQQGTQVSFVANGIQFPTSQQASEYNKLIAPLPAQHQAFNQAWTTAVTATQ [P0ADK0]”, for which the “total protein half-life in vivo” value under setting [1] was 6.1 ± 0.091 h; the “total protein half-life in vivo” value under setting [3] amounted to 6.34 ± 0.47 h; the “total protein half-life in vivo” value under setting [4] is 6.34 ± 0.28 h; the “total protein half-life in vivo” value under setting [5] came out at 6.1 ± 0.9 h; the “total protein half-life in vivo” value under setting [6] came out at 3.007 ± 0.025 h; the “total protein half-life in vivo” value under setting [7] is 6.13 ± 0.24 h. Further, the “total protein half-life in vivo” value under setting [8] was determined as 13.5 ± 1.5 h; the “total protein half-life in vivo” value under setting [9] was 5.79 ± 0.17 h; the “total protein half-life in vivo” value under setting [10] is 12.5 ± 0.65 h; the “total protein half-life in vivo” value under setting [11] was found to be 5.88 ± 0.16 h; the “total protein half-life in vivo” value under setting [12] was 12.5 ± 1.1 h.

Take P0ABD3: the “total protein half-life in vivo” value runs as follows: under setting [2], 5.98 ± 0.58 h; under setting [3], 6.83 ± 1.2 h; under setting [4], 6.67 ± 0.28 h; under setting [5], 6.17 ± 0.69 h; under setting [7], 6.73 ± 1.5 h; under setting [8], 11.4 ± 1.6 h. Also, the “total protein half-life in vivo” value reads like this: under setting [9], 5.57 ± 0.29 h; under setting [10], 13.5 ± 2.1 h; under setting [11], 5.92 ± 0.82 h; under setting [12], 13.2 ± 0.8 h.
